The target in the assay is T1, Boc-QAR-AMC.
T1 sequence (peptide, N-terminal Boc; C-terminal AMC): QAR

On to human Pro115 on cells (enzyme), for which the fluorescence of cleaved Boc-QAR-AMC (370 nm excitation, 450 nm emission), cell-based protease assay is 3 times.

The record behind these values is patent publication US8354508B2.
